The subject of data set [1] is GFP expression. The data set can be described thus: miRNA switch silencing activity on GFP in mammalian cells. It is filed as cell-based. The conditions noted are these: folinic acid. The text has this: Ligand-responsive, microRNA (miRNA) switches have been developed that modulate Drosha processing. These switches integrate an aptamer into the basal segments of a miRNA. Internal loop size contained within the basal segments affects Drosha processing and therefore the levels of miRNA-mediated gene silencing. By integrating an aptamer within the basal segments, unbound aptamer can remain relatively unstructured, while ligand binding can sequester nucleotides involved in binding and inhibit Drosha processing.
Aptamer integration into this switch platform requires two integration stems; therefore, aptamer FA8-3 was chosen. Separate studies on using this aptamer in a transmitter-based switch observe that an internal loop within the aptamer could be expanded while retaining ligand binding ability. This loop was expanded to the previously identified optimal loop size and integrated into the miRNA switch that targets GFP. A single copy of the miRNA switch enables up to 2.1-fold change in GFP expression (FIG. 26b); including two copies yields up to 2.6-fold change (FIG. 26c). Additional copies of the switch would be expected to further increase the achievable activation ratio, as would specific use of (6R)-folinic acid.

Data set [2] can be described thus: Surface plasmon resonance aptamer binding assay, (6R)-folinic acid. Particulars: for Selectivity: between (6R)- and (6S)-folinic acid diastereomers. The protocol:
(§1) Surface plasmon resonance characterization of aptamer binding properties. Nucleic acid aptamer preparation. RNA aptamers were prepared by PCR amplification of DNA template sequences (Table 4, Integrated DNA Technologies, Coralville, Iowa) using forward and reverse primers Biacore-fwd and Biacore-rev, respectively, followed by transcription of the PCR product using the MEGAshortscript T7 transcription kit (Life Technologies) and purification of the transcription product using the RNA Clean & Concentrator kit (Zymo Research, Irvine, Calif.), according to the manufacturers' instructions. Aptamers were resuspended in selection buffer, denatured at 65° C. for 5 min, and cooled to room temperature directly before use.
(§2) Sensor chip surface generation. Experiments were performed on a Biacore X100 instrument (GE Healthcare) at 25° C. A CM5 sensor chip (GE Healthcare) was equilibrated with HBS-N buffer. The DNA linker strand (5′-AmMC6-[…]) (Integrated DNA Technologies) (SEQ ID NO:133), with an amino modified 6-carbon linker on the 5′ end, was immobilized to the chip surface. The carboxymethylated dextran surface of the CM5 chip was activated for 7 min at a flow rate of 10 μL/min using a 1:1 volume ratio of 0.4 M 1-ethyl-3-(3-dimethylaminopropyl) carbodiimide (GE Healthcare) and 0.1 M N-hydroxysuccinimide (GE Healthcare). A molar ratio of 1:30 of DNA strand to hexadecyltrimethylammonium bromide (Sigma-Aldrich, St. Louis, Mo.) was diluted in 10 mM HEPES buffer (Sigma-Aldrich) to a final concentration of 20 μM and 0.6 mM, respectively, and injected over the activated surface for 10 min at a flow rate of 5 μL/min. Excess activated groups were blocked by an injection of 1 M ethanolamine (GE Healthcare), pH 8.5, for 7 min at a flow rate of 10 μL/min. The immobilization reaction was performed sequentially on both flow cells (FC1, FC2) and yielded approximately 4,000 RU of the DNA strand.
(§3) Aptamer binding assay. The Biacore X100 instrument was primed three times with running buffer prior to all binding assays. For each assay, three startup cycles were performed to stabilize the sensorgram baseline. For each startup cycle, the aptamer (˜40-70 ng/μL, ˜3 μM) was captured onto the sample flow cell (FC2) for 40 s at a flow rate of 5 μL/min. 25 mM NaOH (GE Healthcare) was injected for 30 s at a flow rate of 30 μL/min over both flow cells to regenerate the sensor surface. A dilution series of (6R)- or (6S)-folinic acid (Schircks Laboratories, Jona, Switzerland) was prepared in selection buffer and filtered through a 0.2 μm membrane (Pall Corporation, Port Washington, N.Y.). For each concentration sample, the aptamer was captured onto the sample flow cell (FC2) for 40 s at a flow rate of 5 μL/min, the folinic acid solution was injected over both flow cells at a flow rate of 30 μL/min to monitor target association, and selection buffer was injected over both flow cells at a flow rate of 30 μL/min to monitor target dissociation. Association and dissociation phase lengths used were chosen based on time needed to reach equilibrium. Aptamer and folinic acid were removed from the sensor surface by injecting 25 mM NaOH for 30 s at a flow rate of 30 μL/min over both flow cells.
(§4) Data processing and analysis were performed using Biacore X100 Evaluation Software version 2.0 (GE Healthcare). A double-referencing method was performed to process all datasets. Data from the sample flow cell (FC2) were referenced first by subtracting data from the reference flow cell (FC1) to correct for bulk refractive index changes, nonspecific binding, injection noise, matrix effects, and baseline drift. Reference-subtracted data (FC2−FC1) were double-referenced with a blank injection of running buffer to account for any systematic drift over the course of the injection. Double-referenced data were fit to a 1:1 binding model for kinetic analysis or steady-state affinity model for thermodynamic analysis. […]

Data set [3] in a line: Surface plasmon resonance aptamer binding assay, (6S)-folinic acid. Particulars: SPR, 25° C., selection buffer pH 7.4, 5 mM MgCl2. The protocol: as §1, §2, §3, §4
A short description of data set [4]: SPR equilibrium binding to folate derivative (6R)-tetrahydrobiopterin. Particulars: N.D. = non-detectable levels of binding, read-out: KD, (6R)-Tetrahydrobiopterin (THB).
Data set [5] can be described thus: SPR binding to (6R,S)-5-methyl-5,6,7,8-tetrahydrofolic acid. Particulars: ligand is mixture of (6R) and (6S) diastereomers, read-out: KD, (6R,S)-5-methyl-THF.
Data set [6] can be described thus: SPR binding to (6R,S)-5-formyl-5,6,7,8-tetrahydropteroic acid. Particulars: ligand is mixture of (6R) and (6S) diastereomers.
A short description of data set [7]: SPR screen of truncated or mutated aptamers for folinic acid binding (qualitative). The protocol: Full length sequences were amplified off of sequencing PCR products using primers N70-fwd-short and Biacore-N70-rev to append a poly(A) tail. Truncated or mutated sequences were synthesized by Integrated DNA Technologies or the Protein and Nucleic Acid facility (Stanford, Calif.).
as §1
Sensor chip surface generation. Experiments were performed on a Biacore X100 instrument (GE Healthcare) at 25° C. A CM5 sensor chip (GE Healthcare) was equilibrated with HBS-N buffer. The DNA linker strand (5′-AmMC6-[…]) (Integrated DNA Technologies) (SEQ ID NO:133), with an amino modified 6-carbon linker on the 5′ end, was immobilized to the chip surface. […]

Data set [8] deals with GFP expression. Put plainly: Gene-regulatory activity of ribozyme-based switches in yeast (GFP, flow cytometry). It is filed as cell-based, Saccharomyces cerevisiae. The conditions noted are these: normalized to sTRSV Contl. The protocol:
Plasmid and strain construction. Standard molecular biology cloning techniques were used to construct all plasmids. DNA synthesis was performed by Integrated DNA Technologies (Coralville, Iowa) or the Protein and Nucleic Acid Facility (Stanford, Calif.). All enzymes, including restriction enzymes and ligases, were obtained through New England Biolabs (Ipswich, Mass.). Ligation products were electroporated with a GenePulser XCell (Bio-Rad, Hercules, Calif.) into an E. coli DH10B strain (Invitrogen, Carlsbad, Calif.), where cells harboring cloned plasmids were maintained in Luria-Bertani media containing 50 μg/mL ampicillin (EMD Chemicals, Philadelphia, Pa.). […]
The two-color screening plasmid pCS1748; single-color plasmids harboring GFP (pCS1585) and mCherry (pCS1749) for use as compensation controls; and no-color plasmid pCS4, containing no fluorescence reporter gene, was used as the negative-control construct. […]
Cell sorting screen for functional ligand-responsive RNA switches. […] Transformation efficiencies were determined by plating serial dilutions of the transformants, and transformed cells were propagated in SC-URA media for FACS.
Two-color FACS-based screen. […] GFP was excited at 488 nm and measured with a splitter of 505 nm and bandpass filter of 525/50 nm. mCherry was excited at 532 nm and measured with a splitter of 600 nm and a bandpass filter of 610/20 nm. […]

Setting [9] is: SPR, 1:1 binding model, 25° C., selection buffer pH 7.4, 5 mM MgCl2.
The mark [10] stands for this setting: SPR, 25° C., selection buffer pH 7.4, 5 mM MgCl2.

This is an account of results in US10450573B2, “Compositions and methods for regulation of gene expression with, and detection of, folinic acid and folates” (The Board of Trustees of the Leland Stanford Junior …, priority 2014, dated 2019).

B1: miRNA switch: folinic acid-responsive miRNA switch with aptamer FA8-3 that targets GFP, SEQ ID NO: 57 (nucleic acid)
chain: AATAACCGGTGCGATCGCGAACGGGTCCTCACTACCCCTCGAAATCACGAGGGAGACGAGATAAGAGCGACGGCGGAGCGAGCACAAGCTGGAGTACAACTATAGTGAAGCCACAGATGTATAGTTGTACTCCAGCTTGTGCCCGCCTTGCCAACCATAACGTCTGGTCACGACCGTAGTAAGGGCCCGTTTTTAATTAAATCGATTATT
modifications: Synthetic nucleic acid
Regarding B1, the “change in GFP expression” value is “up to 2.1 fold” with GFP expression [1] (single copy of the miRNA switch) and “up to 2.6 fold” with GFP expression [1] (two copies of the miRNA switch).

B2: tFA8-3: truncated (6R)-FA specific RNA aptamer, SEQ ID NO: 19 (nucleic acid)
chain: UUUGCCAACGUCUGGUCACGACCGUAGUACACUACCCCUCGAAAUCACGAGGGAGACGAGAUAGGCGGA
modifications: unmodified RNA
As for B2, the “ka, (6R)-Folinic Acid” value in data set [2] (setting [9]) is 459000 M⁻¹ s⁻¹. In data set [2] (setting [9]), the “kd, (6R)-Folinic Acid” value was found to be 0.0217 s⁻¹. The Kd is 0.0473 µM in data set [2] (setting [10]); 28.6 µM in data set [3]; 1.6 µM in data set [4]; 0.158 µM in data set [5]; 0.0957 µM in data set [6] (read-out: KD, (6R,S)-5-formyl-THPteroic Acid). Besides, in data set [2], the Selectivity is on record as 606. Also, the “ka, (6R,S)-5-formyl-THPteroic Acid” value in data set [6] was 305000 M⁻¹ s⁻¹. Moreover, the “kd, (6R,S)-5-formyl-THPteroic Acid” value in data set [6] was determined as 0.0292 s⁻¹.

B3: tFA8-14: truncated (6S)-FA specific RNA aptamer, SEQ ID NO: 25 (nucleic acid)
chain: CCGCGCAAGUGCAUUAACGGUGACACCGAAAGCUGGAAAGCCUGACAUCGAACGCAAAAGGCUGCGUGG
modifications: unmodified RNA
Molecule B3 registered a Kd in data set [2] (setting [10]) of 10200 µM. Besides, in data set [2], the Selectivity is on record as 71,100. Moreover, in data set [3] (1:1 binding model), the “ka, (6S)-Folinic Acid” value came to 89200 M⁻¹ s⁻¹ and the “kd, (6S)-Folinic Acid” value came to 0.0128 s⁻¹. The molecule further came in with an equilibrium dissociation constant (Kd) in data set [3] of 0.144 µM. Also, the “folinic acid binding (qualitative)” value in data set [7] is on record as “maintains binding”.

B4: L2b8: parent theophylline-responsive ribozyme switch, SEQ ID NO: 43 (nucleic acid)
chain: AAACAAACAAAGCTGTCACCGGATGTGCTTTCCGGTCTGATGAGTCCGTTGTCCATACCAGCATCGTCTTGATGCCCTTGGCAGGGACGGGACGGAGGACGAAACAGCAAAAAGAAAAATAAAAA
modifications: listed as DNA, chemistry not fully specified
Turning to B4, the “normalized GFP expression” value in the data set with GFP expression [8] (absence of theophylline) was about 10.8%; in the data set on GFP expression [8] (presence of 5 mM theophylline), about 36.7%.
